The series relates to Escherichia coli TOP10. The experiment in a line: shrunken log2 fold change of peptide-encoding DNA abundance (4.5 h post-induction vs induction); higher = less antimicrobial activity (less host growth inhibition). As to conditions: time post-induction: 4.5 h; library: site-saturation at positions 5, 18, 19, 20.
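Note: peptides expressed intracellularly from a pBAD plasmid library in pooled LB shake-flask culture, induced with 0.3% L-arabinose, DNA abundance read by NGS, three biological replicates, DESeq2 with apeglm shrinkage.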

Consider RRIRTRPPRLPRPRPRPRSCPRP, for which the “shrunken log2 fold change” value was 0.423. On to RRIRARPPRLPRPRPRPAKDPRP, for which the “shrunken log2 fold change” value amounted to 0.316.

Take RRIRMRPPRLPRPRPRPTDCPRP: the “shrunken log2 fold change” value is -0.0353. As for RRIRLRPPRLPRPRPRPHFEPRP, the “shrunken log2 fold change” value came out at 0.118. With RRIRGRPPRLPRPRPRPRPKPRP, the “shrunken log2 fold change” value was found to be 1.41. The same measure for RRIRHRPPRLPRPRPRPCQLPRP: -0.0748. Turning to RRIRWRPPRLPRPRPRPPADPRP, the “shrunken log2 fold change” value turned out to be 0.846. With RRIRLRPPRLPRPRPRPGHAPRP, the “shrunken log2 fold change” value is 0.21. In the case of RRIRARPPRLPRPRPRPWQNPRP, the “shrunken log2 fold change” value was 0.05. With RRIRHRPPRLPRPRPRPFMRPRP the figure was -0.42; with RRIRDRPPRLPRPRPRPLSWPRP, 0.488; with RRIRPRPPRLPRPRPRPWVRPRP, 0.113. In the case of RRIRLRPPRLPRPRPRPVVYPRP, the “shrunken log2 fold change” value is -0.058. The same measure for RRIRIRPPRLPRPRPRPCWEPRP: -0.0815; for RRIRLRPPRLPRPRPRPNLAPRP: -0.0506. With RRIRERPPRLPRPRPRPPKVPRP the figure was -0.0931. In the case of RRIRSRPPRLPRPRPRPTMWPRP, the “shrunken log2 fold change” value was 0.214. Consider RRIRFRPPRLPRPRPRPIGMPRP, for which the “shrunken log2 fold change” value is -0.0266.

For RRIRKRPPRLPRPRPRPIWIPRP, the “shrunken log2 fold change” value is -0.0325.

In the case of RRIRDRPPRLPRPRPRPCKSPRP, the “shrunken log2 fold change” value is -0.321. Turning to RRIRTRPPRLPRPRPRPWFMPRP, the “shrunken log2 fold change” value is -0.364.

For RRIRIRPPRLPRPRPRPWNNPRP, the “shrunken log2 fold change” value is -0.89.

Take RRIRTRPPRLPRPRPRPVMMPRP: the “shrunken log2 fold change” value was -0.199. Consider RRIRERPPRLPRPRPRPHTQPRP, for which the “shrunken log2 fold change” value was -0.362. As to RRIRKRPPRLPRPRPRPTTNPRP, the “shrunken log2 fold change” value came out at 0.486. With RRIRHRPPRLPRPRPRPLNFPRP the figure was -0.0479; with RRIRDRPPRLPRPRPRPKPTPRP, 0.0678. With RRIRKRPPRLPRPRPRPCVMPRP the figure was 0.0542. With RRIRLRPPRLPRPRPRPRCQPRP the figure was 0.72.

In the case of RRIRYRPPRLPRPRPRPCISPRP, the “shrunken log2 fold change” value came out at 0.0212.

As to RRIRPRPPRLPRPRPRPGQCPRP, the “shrunken log2 fold change” value is -0.0386. The same measure for RRIRKRPPRLPRPRPRPNPTPRP: 0.249; for RRIRDRPPRLPRPRPRPRSHPRP: -0.0765; for RRIRERPPRLPRPRPRPSRMPRP: -0.0294. Consider RRIRARPPRLPRPRPRPWLLPRP, for which the “shrunken log2 fold change” value turned out to be 0.156. The same measure for RRIRYRPPRLPRPRPRPGAKPRP: 0.379; for RRIRKRPPRLPRPRPRPTKGPRP: 0.0795; for RRIRWRPPRLPRPRPRPELHPRP: 0.308.

Turning to RRIRRRPPRLPRPRPRPVCLPRP, the “shrunken log2 fold change” value is 0.149. As to RRIRSRPPRLPRPRPRPRDAPRP, the “shrunken log2 fold change” value amounted to 0.328.

On to RRIRIRPPRLPRPRPRPQENPRP, for which the “shrunken log2 fold change” value was -0.494.

For the sequence RRIRIRPPRLPRPRPRPFGEPRP, the “shrunken log2 fold change” value is -0.202. Take RRIRMRPPRLPRPRPRPRVLPRP: the “shrunken log2 fold change” value amounted to 1.12. The same measure for RRIRFRPPRLPRPRPRPQGNPRP: 0.311. Regarding RRIRGRPPRLPRPRPRPPEKPRP, the “shrunken log2 fold change” value was 1.64.

As for RRIRERPPRLPRPRPRPTPAPRP, the “shrunken log2 fold change” value is 0.239.

As to RRIRFRPPRLPRPRPRPNQCPRP, the “shrunken log2 fold change” value was -0.511. Regarding RRIRRRPPRLPRPRPRPMWMPRP, the “shrunken log2 fold change” value came to 0.0619. The same measure for RRIRSRPPRLPRPRPRPCQAPRP: 0.116; for RRIRGRPPRLPRPRPRPEYAPRP: 1.26. As to RRIRMRPPRLPRPRPRPTWKPRP, the “shrunken log2 fold change” value is -0.0427.

Consider RRIRLRPPRLPRPRPRPRVEPRP, for which the “shrunken log2 fold change” value came to 0.174. The same measure for RRIRERPPRLPRPRPRPNQKPRP: -0.108.

Regarding RRIRRRPPRLPRPRPRPKWCPRP, the “shrunken log2 fold change” value stood at 0.431.

On to RRIRTRPPRLPRPRPRPTHWPRP, for which the “shrunken log2 fold change” value is 0.987. RRIRGRPPRLPRPRPRPEGMPRP: the “shrunken log2 fold change” value was found to be 1.34. For RRIRFRPPRLPRPRPRPLLNPRP, the “shrunken log2 fold change” value is -0.549. Consider RRIRSRPPRLPRPRPRPGYCPRP, for which the “shrunken log2 fold change” value is -0.119.

In the case of RRIRFRPPRLPRPRPRPTSSPRP, the “shrunken log2 fold change” value is -0.0359. Consider RRIRNRPPRLPRPRPRPGTSPRP, for which the “shrunken log2 fold change” value is -0.0337. With RRIRIRPPRLPRPRPRPSCGPRP the figure was -0.174.

As to RRIRQRPPRLPRPRPRPKPNPRP, the “shrunken log2 fold change” value was 0.301. For the sequence RRIRIRPPRLPRPRPRPCFSPRP, the “shrunken log2 fold change” value was -0.198.

Take RRIRMRPPRLPRPRPRPKPYPRP: the “shrunken log2 fold change” value stood at 0.314.

RRIRIRPPRLPRPRPRPNQQPRP: the “shrunken log2 fold change” value was found to be 0.0352. With RRIRYRPPRLPRPRPRPLQFPRP the figure was -0.537; with RRIRFRPPRLPRPRPRPKQFPRP, 0.058.

Take RRIRTRPPRLPRPRPRPGTIPRP: the “shrunken log2 fold change” value was -0.0982. As for RRIRTRPPRLPRPRPRPKEQPRP, the “shrunken log2 fold change” value amounted to 0.0592. The same measure for RRIRERPPRLPRPRPRPRGDPRP: 0.0639. For the sequence RRIRIRPPRLPRPRPRPPYHPRP, the “shrunken log2 fold change” value was -0.652. For RRIRMRPPRLPRPRPRPCAYPRP, the “shrunken log2 fold change” value came out at 0.227. With RRIRMRPPRLPRPRPRPIHRPRP, the “shrunken log2 fold change” value is -0.154. The same measure for RRIRWRPPRLPRPRPRPDACPRP: 0.00464; for RRIRQRPPRLPRPRPRPLTYPRP: -0.13; for RRIRERPPRLPRPRPRPRMDPRP: -0.495.

As to RRIRERPPRLPRPRPRPQWNPRP, the “shrunken log2 fold change” value is -0.33. RRIRRRPPRLPRPRPRPFFQPRP: the “shrunken log2 fold change” value is -0.111. With RRIRARPPRLPRPRPRPDDTPRP the figure was 0.468; with RRIRQRPPRLPRPRPRPREIPRP, 0.115.

For the sequence RRIRARPPRLPRPRPRPWYGPRP, the “shrunken log2 fold change” value is -0.634. The same measure for RRIRVRPPRLPRPRPRPDGVPRP: -0.0176; for RRIRYRPPRLPRPRPRPWVWPRP: -0.111; for RRIRGRPPRLPRPRPRPGISPRP: 0.0483. The same measure for RRIRTRPPRLPRPRPRPCTNPRP: -0.0102.

Regarding RRIRLRPPRLPRPRPRPIVVPRP, the “shrunken log2 fold change” value was -0.0319. Consider RRIRDRPPRLPRPRPRPTKWPRP, for which the “shrunken log2 fold change” value turned out to be 0.0286. For RRIRVRPPRLPRPRPRPPGDPRP, the “shrunken log2 fold change” value is 0.12. In the case of RRIRLRPPRLPRPRPRPYTSPRP, the “shrunken log2 fold change” value was -0.33.

RRIRVRPPRLPRPRPRPWYPPRP: the “shrunken log2 fold change” value was -0.884. The same measure for RRIRPRPPRLPRPRPRPQQQPRP: -0.17; for RRIRPRPPRLPRPRPRPYQFPRP: -0.114; for RRIRLRPPRLPRPRPRPYRHPRP: -0.628.

On to RRIRERPPRLPRPRPRPVYWPRP, for which the “shrunken log2 fold change” value stood at 0.0789. The same measure for RRIRNRPPRLPRPRPRPAYCPRP: -0.0951. On to RRIRFRPPRLPRPRPRPTKYPRP, for which the “shrunken log2 fold change” value was -0.635. With RRIRWRPPRLPRPRPRPIQCPRP the figure was -0.0122; with RRIRVRPPRLPRPRPRPPHIPRP, 0.0567. With RRIRNRPPRLPRPRPRPYKQPRP, the “shrunken log2 fold change” value was -0.0495.

With RRIRHRPPRLPRPRPRPPGIPRP, the “shrunken log2 fold change” value amounted to 0.142. With RRIRARPPRLPRPRPRPMMPPRP the figure was 0.307. The same measure for RRIRYRPPRLPRPRPRPLHPPRP: -0.0607. As for RRIRLRPPRLPRPRPRPCKLPRP, the “shrunken log2 fold change” value is -0.114. For RRIRSRPPRLPRPRPRPHSRPRP, the “shrunken log2 fold change” value is -0.322. With RRIRKRPPRLPRPRPRPAELPRP the figure was 0.552; with RRIRQRPPRLPRPRPRPTPIPRP, 0.182; with RRIRIRPPRLPRPRPRPCYTPRP, -0.128. In the case of RRIRWRPPRLPRPRPRPACRPRP, the “shrunken log2 fold change” value stood at 0.258. The same measure for RRIRNRPPRLPRPRPRPKTWPRP: 0.0949; for RRIRWRPPRLPRPRPRPFLQPRP: -0.499. For the sequence RRIRMRPPRLPRPRPRPFSNPRP, the “shrunken log2 fold change” value was -0.175. The same measure for RRIRGRPPRLPRPRPRPFICPRP: 0.268; for RRIRARPPRLPRPRPRPPYIPRP: -0.38. With RRIRVRPPRLPRPRPRPHMIPRP, the “shrunken log2 fold change” value was -0.463. RRIRIRPPRLPRPRPRPGGHPRP: the “shrunken log2 fold change” value was -0.0701. As to RRIRTRPPRLPRPRPRPVGRPRP, the “shrunken log2 fold change” value was determined as 0.129. The same measure for RRIRFRPPRLPRPRPRPPEPPRP: 0.54; for RRIRSRPPRLPRPRPRPPCPPRP: 0.319. Turning to RRIRVRPPRLPRPRPRPLEYPRP, the “shrunken log2 fold change” value was 0.0331. Take RRIRMRPPRLPRPRPRPHPEPRP: the “shrunken log2 fold change” value was determined as 0.414. With RRIRCRPPRLPRPRPRPVAFPRP the figure was -0.169; with RRIRPRPPRLPRPRPRPMDEPRP, 0.119. On to RRIRIRPPRLPRPRPRPKCGPRP, for which the “shrunken log2 fold change” value is -0.0309. As for RRIRTRPPRLPRPRPRPRLLPRP, the “shrunken log2 fold change” value was found to be 0.0778. The same measure for RRIRGRPPRLPRPRPRPDAVPRP: 1.81.
